{
  "source": "patent US20260009052",
  "about": "“CAS12 PROTEINS AND USES THEREOF” (GUANGZHOU REFORGENE MEDICINE CO., LTD., published 2026)",
  "binders": {"B1": {"name": "C12-279 Reporter3 sgRNA ; Reporter3 target (ssRNA ; dsDNA)", "RNA": "GUAAUGCGUCUCCCAUUGACGCCUCACCUCGCGACGCAAUGAUG", "DNA 1": "CTCACCTCGCGACGCAATGATG", "DNA 2": "CATCATTGCGTCGCGAGGTGAG"}},
  "key": {"C12-279 G989R": {"molecular_target": "T1, C12-279 G989R (synthetic construct, G989R)", "T1 chain": "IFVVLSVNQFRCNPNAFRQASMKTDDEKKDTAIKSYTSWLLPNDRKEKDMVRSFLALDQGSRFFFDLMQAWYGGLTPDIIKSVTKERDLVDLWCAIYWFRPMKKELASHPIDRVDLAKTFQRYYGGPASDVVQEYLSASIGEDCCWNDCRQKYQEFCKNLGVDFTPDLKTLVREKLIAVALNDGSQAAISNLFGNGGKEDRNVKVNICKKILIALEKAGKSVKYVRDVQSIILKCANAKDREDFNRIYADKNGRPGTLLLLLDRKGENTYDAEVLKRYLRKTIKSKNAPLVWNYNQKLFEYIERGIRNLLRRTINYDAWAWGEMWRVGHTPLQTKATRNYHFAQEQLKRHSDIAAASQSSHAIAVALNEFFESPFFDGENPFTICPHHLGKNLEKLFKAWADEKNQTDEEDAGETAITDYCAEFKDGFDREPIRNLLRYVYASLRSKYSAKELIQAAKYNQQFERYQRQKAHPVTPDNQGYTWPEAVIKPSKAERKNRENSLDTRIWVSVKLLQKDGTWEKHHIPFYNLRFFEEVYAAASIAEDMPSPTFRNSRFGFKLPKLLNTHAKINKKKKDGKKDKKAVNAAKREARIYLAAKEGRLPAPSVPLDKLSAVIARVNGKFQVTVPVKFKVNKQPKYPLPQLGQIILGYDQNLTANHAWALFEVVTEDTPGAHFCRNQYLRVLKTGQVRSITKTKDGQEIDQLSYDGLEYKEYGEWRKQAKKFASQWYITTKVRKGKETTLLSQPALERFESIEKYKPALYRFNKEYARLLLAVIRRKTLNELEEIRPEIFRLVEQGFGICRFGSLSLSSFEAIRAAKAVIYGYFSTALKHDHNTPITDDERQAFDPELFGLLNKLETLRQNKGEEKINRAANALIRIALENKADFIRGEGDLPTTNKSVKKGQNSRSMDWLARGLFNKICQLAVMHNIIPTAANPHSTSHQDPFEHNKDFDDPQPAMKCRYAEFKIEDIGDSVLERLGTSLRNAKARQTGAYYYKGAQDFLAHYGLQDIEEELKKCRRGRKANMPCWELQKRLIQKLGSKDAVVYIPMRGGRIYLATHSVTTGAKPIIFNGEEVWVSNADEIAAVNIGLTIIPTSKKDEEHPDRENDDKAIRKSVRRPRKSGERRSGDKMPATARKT", "assay": "cell_activity; PAM TTG; +/-0.2", "experimental": "Transfection: transfection was performed 12-14 h after plating. 1.5 μL PEI (Yeasen Biotechnology, 40815ES03, Polyethylenimine Linear (PEI) MW25000) and 500 ng mutation clone plasmid were added to 100 μL Opti-MEM per well of the 24-well plate, mixed, and added to the NAAN cell line for cell transfection after placing at room temperature for 20 min. After overnight transfection, a fresh culture medium was replaced, and the culture was continued for 72 h, followed by flow cytometry. Editing efficiencies of different mutant clones were characterized by the proportion of GFP-positive cells.\nEditing efficiency of some selected mutants was tested in Reporter3 cell line using the same manner as described for the NAAN reporter system, except that the cell line was changed from NAAN cell line to Reporter3 cell line."}, "[1]": {"molecular_target": "T2, C12-279 Mut-02-1-5-426-858-860 (synthetic construct, I1R,L5R,Q186R,D352R,D426R,858R,L860R)", "T2 chain": "T1 chain with I1R, L5R, Q186R, D352R, D426R, E858R, L860R, R989G", "assay": "cell_activity; PAM TTG"}},
  "note": "Numbering of substitutions follows the chain as printed.",
  "data": [
    {"binder": "B1", "values": [
      {"measurement": "binding signal", "setting": "C12-279 G989R", "value": "1.27 fold of C12-279"},
      {"measurement": "binding signal", "setting": "[1]", "value": "3.77 fold of C12-279"}
    ]}
  ]
}
